Patent US20080274950A1 (BABRAHAM INSTITUTE, published 2008)

T1: full length chicken N-cadherin with the mutation R25C expressed on K562 cells (chicken, UniProt P10288 165-912, R25C)
T1 construct: whole, on cells; also called K562 R25C
T1 sequence (looked up): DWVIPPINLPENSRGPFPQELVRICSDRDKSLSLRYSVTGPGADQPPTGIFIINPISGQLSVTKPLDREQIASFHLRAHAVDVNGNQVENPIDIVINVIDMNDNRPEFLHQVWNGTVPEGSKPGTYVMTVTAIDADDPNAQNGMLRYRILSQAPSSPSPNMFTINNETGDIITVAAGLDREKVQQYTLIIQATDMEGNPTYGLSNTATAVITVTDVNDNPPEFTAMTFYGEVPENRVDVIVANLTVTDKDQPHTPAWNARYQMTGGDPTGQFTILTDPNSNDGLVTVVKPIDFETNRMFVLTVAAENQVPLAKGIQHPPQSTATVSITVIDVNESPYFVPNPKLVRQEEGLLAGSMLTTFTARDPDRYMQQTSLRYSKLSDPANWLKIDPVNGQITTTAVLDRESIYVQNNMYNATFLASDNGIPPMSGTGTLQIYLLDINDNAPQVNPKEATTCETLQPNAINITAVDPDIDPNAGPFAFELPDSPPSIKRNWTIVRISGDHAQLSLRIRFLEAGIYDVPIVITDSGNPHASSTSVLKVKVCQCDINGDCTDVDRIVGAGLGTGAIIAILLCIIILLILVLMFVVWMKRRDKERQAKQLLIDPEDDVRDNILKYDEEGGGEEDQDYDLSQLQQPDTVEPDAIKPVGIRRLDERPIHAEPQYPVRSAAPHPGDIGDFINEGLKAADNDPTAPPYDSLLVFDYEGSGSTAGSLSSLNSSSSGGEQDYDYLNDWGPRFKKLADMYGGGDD

T2: full length chicken N-cadherin with the mutation D1C expressed on K562 cells (chicken, UniProt P10288 165-912, D1C)
T2 construct: whole, on cells; also called D1C cells; K562 D1C
T2 sequence (looked up): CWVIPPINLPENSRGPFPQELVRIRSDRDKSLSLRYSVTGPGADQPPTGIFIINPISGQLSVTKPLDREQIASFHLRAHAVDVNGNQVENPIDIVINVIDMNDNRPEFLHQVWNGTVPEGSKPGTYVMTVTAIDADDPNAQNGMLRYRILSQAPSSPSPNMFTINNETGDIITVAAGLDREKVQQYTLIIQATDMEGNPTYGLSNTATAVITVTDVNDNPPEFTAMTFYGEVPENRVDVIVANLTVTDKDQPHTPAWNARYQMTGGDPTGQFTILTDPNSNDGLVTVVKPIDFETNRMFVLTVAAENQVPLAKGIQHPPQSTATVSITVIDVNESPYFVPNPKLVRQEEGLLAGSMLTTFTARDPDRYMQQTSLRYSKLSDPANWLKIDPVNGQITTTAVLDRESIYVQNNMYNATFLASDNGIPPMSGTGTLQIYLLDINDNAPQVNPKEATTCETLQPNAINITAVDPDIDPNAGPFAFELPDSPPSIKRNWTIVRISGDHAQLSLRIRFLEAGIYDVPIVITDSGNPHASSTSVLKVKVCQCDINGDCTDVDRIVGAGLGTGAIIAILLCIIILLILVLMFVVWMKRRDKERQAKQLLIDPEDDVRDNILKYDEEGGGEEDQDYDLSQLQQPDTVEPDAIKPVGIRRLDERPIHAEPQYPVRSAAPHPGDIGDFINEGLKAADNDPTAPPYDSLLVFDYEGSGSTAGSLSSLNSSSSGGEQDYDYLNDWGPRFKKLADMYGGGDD

T3: full length chicken N-cadherin with the mutation D27C expressed on K562 cells (chicken, UniProt P10288 165-912, D27C)
T3 construct: whole, on cells; also called K562 D27C
T3 sequence (looked up): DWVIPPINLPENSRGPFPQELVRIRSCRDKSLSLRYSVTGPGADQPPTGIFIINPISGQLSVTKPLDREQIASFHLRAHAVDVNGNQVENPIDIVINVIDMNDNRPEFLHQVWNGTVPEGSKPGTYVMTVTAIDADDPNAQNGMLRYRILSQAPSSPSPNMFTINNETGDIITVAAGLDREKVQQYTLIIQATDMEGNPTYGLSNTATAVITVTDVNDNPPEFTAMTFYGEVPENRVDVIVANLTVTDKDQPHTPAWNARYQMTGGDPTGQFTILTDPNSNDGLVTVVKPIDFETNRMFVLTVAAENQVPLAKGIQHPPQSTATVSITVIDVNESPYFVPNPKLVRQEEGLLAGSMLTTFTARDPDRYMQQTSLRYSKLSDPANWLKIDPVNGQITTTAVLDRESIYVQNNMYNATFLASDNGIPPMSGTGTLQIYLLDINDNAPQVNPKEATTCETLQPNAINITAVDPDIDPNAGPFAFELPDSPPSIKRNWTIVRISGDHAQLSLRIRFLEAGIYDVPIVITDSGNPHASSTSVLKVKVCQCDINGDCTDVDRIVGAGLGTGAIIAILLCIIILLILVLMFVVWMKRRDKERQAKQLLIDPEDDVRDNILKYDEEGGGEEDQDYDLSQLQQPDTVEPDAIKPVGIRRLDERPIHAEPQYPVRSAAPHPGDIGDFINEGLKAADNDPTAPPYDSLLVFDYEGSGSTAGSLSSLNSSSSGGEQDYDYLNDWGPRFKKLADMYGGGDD

T4: human N-cadherin naturally expressed on DX3 melanoma cells (human, UniProt P19022 160-906)
T4 construct: also called DX3 Cells; N-cadherin+ve DX3 melanoma cells
T4 sequence: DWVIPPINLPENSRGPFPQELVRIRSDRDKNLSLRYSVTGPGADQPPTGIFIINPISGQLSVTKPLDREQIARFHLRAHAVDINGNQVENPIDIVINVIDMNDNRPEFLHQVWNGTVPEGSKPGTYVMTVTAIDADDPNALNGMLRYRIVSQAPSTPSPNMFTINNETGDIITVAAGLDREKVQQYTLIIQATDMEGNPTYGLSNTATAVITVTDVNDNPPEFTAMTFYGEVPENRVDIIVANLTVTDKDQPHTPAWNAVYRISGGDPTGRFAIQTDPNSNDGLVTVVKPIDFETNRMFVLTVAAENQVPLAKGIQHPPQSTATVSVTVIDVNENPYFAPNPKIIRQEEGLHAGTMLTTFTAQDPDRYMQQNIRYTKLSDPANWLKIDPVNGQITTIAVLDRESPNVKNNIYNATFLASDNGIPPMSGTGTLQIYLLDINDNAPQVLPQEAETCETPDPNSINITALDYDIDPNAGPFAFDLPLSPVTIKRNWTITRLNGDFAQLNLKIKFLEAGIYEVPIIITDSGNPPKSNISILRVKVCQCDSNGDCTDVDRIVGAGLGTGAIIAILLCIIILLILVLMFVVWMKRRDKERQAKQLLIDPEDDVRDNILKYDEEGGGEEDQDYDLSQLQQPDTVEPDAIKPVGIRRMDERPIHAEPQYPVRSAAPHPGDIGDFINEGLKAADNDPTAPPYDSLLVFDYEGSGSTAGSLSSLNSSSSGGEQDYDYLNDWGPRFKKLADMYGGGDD


Columns and labels:
[1] = target: T1, full length chicken N-cadherin with the …; experiment: Protein A Dynabeads coated with dimeric D27C N-cadherin-Fc mixed with K562 transfectants
Procedure: (§1) In an alternative protocol, Dynabeads (Dynal) coupled to Protein A were coated with dimeric N-cadherin-Fc (1 μg/ml), bearing the mutation D27C, for 1 hour at room temperature in the presence of 0.1% Tween 20 and 4 mM EGTA (to prevent aggregation). The beads were then washed with HBSS. K562 transfectants expressing cell surface Ncadherin with the mutations D1C, R25C or D27C, were treated with 10 mM DTT for 15 minutes at 37° C., then washed and resuspended in HBSS without DTT. Cells ([…]) were mixed with 3 μl of beads coated with mutant N-cadherin-Fc in a final volume of 100 μl HBSS. Cells and beads were incubated together at room temperature for 2 hours with slow rotation to allow adhesion. Approximately five beads became attached to each cell and there was some clumping of attached and unattached beads. Iodoacetamide, 2 μl of 1.0M solution, was then added to alkylate free sulphydryl groups. The samples were then spun down at 1500 g and the cells were lysed in HBSS, 0.075% SDS, 1% NP40, 0.2 mM AEBSF, for 4 minutes on ice. Beads were then isolated with a magnet and washed twice with lysis buffer. Disulphide-bonded complexes between cellular cadherin and the Fc-fusion protein were analysed by SDS-PAGE and immunoblotting for cadherin cytoplasmic domain as described above. To ensure equal loading, membranes were stripped and re-assayed with anti-Human Fc.

[2] = target: T2, full length chicken N-cadherin with the …; experiment: as above
Procedure: as §1

[3] = target: T3, full length chicken N-cadherin with the …; experiment: as above
Procedure: as §1

[4] = target: T4, human N-cadherin naturally expressed on …; experiment: adhesion of DX3 cells to coated monomeric N-cadherin-Fc, oxidising buffer
Procedure: Monomeric or dimeric N-cadherin-Fc fusion protein in Cos cell supernatants was added as described for the ELISA assay. DX3 Cells, a human melanoma cell line which expresses N-cadherin, were dissociated with Cell Dissociation Solution (Sigma, code C5789), resuspended in HBSS with 2% FCS and assessed for adhesion to wild type or mutant N-cadherin-Fc as previously described (Corps et al., 2001). Microscopic examination established that the cells were present as a single cell suspension as they settled onto the plate. For assays conducted in reducing conditions, 10 mM DTT was present during the adhesion and washing steps. Determinations were conducted in triplicate and results are presented as mean +/−sem.

[5] = target: T2, full length chicken N-cadherin with the …; experiment: cell adhesion to coated monomeric N-cadherin-Fc, then non-reducing SDS-PAGE and immunoblot
Procedure: Monomeric N-cadherin-Fc (1 μg/ml) bearing the three alternative cysteine point mutations, D1C, R25C or D27C, was immobilised on 96-well plates with goat antihuman IgG Fe as previously described for E-cadherin-Fc (Corps et al., 2001). Unbound cadherin was removed by washing with HBSS, 0.1% BSA, followed by HBSS alone. The plates were not blocked with additional protein. K562 transfectants expressing N-cadherin bearing complementary or non-complementary point mutations (6×10^4 Cells in 100 μl HBSS containing 10 mM DTT), in single cell suspension, were added to the coated wells which contained 100 μl HBSS. The final concentration of DTT was therefore 5 mM DTT during the adhesion stage. The cells were allowed to settle for 10 min at room temperature before incubation at 37° C. for 30 minutes to complete adhesion. […] Adherent cells from a pool of 4 wells for each experimental condition were then solubilised in sample buffer for SDS-PAGE and analysed on NuPAGE Novex gradient gels, 3-8% or 4-12%, (Invitrogen), under nonreducing or reducing conditions. Cellular cadherin was detected by immunoblotting using rabbit pan anti-cadherin antiserum specific for the cytoplasmic domain. Alternatively, N-cadherin-Fc fusion protein was detected with rabbit anti-human IgG, Fc-specific (Pierce, code 31142). […]

beads attached to each cell [1] [beads per cell] | beads attached to each cell [2] [beads per cell] | beads attached to each cell [3] [beads per cell] | binding result [4] | binding result [5] | Binder
~5 | ~5 | ~5 |  |  | chicken N-cadherin-Fc fusion protein with the mutation D27C, dimeric (conventional fusion protein dimerised via Fc), coated to Protein A magnetic beads (Fc fusion, UniProt P10288 165-728, looked up, extracellular domain; also called dimeric N-cadherin-Fc D27C; D27C beads; not shown: hinge region, CH2 and CH3 domains of human IgG1 heavy chain (vector pIgSig)) DWVIPPINLPENSRGPFPQELVRIRSCRDKSLSLRYSVTGPGADQPPTGIFIINPISGQLSVTKPLDREQIASFHLRAHAVDVNGNQVENPIDIVINVIDMNDNRPEFLHQVWNGTVPEGSKPGTYVMTVTAIDADDPNAQNGMLRYRILSQAPSSPSPNMFTINNETGDIITVAAGLDREKVQQYTLIIQATDMEGNPTYGLSNTATAVITVTDVNDNPPEFTAMTFYGEVPENRVDVIVANLTVTDKDQPHTPAWNARYQMTGGDPTGQFTILTDPNSNDGLVTVVKPIDFETNRMFVLTVAAENQVPLAKGIQHPPQSTATVSITVIDVNESPYFVPNPKLVRQEEGLLAGSMLTTFTARDPDRYMQQTSLRYSKLSDPANWLKIDPVNGQITTTAVLDRESIYVQNNMYNATFLASDNGIPPMSGTGTLQIYLLDINDNAPQVNPKEATTCETLQPNAINITAVDPDIDPNAGPFAFELPDSPPSIKRNWTIVRISGDHAQLSLRIRFLEAGIYDVPIVITDSGNPHASSTSVLKVKVCQCDINGDCTDVDRIVGAGLGT
 |  |  | binds | binds | monomeric chicken N-cadherin-Fc with the mutation R25C (Fc fusion, UniProt P10288 165-728, looked up, extracellular domain; not shown: hinge region, CH2 and CH3 domains of human IgG1 heavy chain (vector pIgSig)) DWVIPPINLPENSRGPFPQELVRICSDRDKSLSLRYSVTGPGADQPPTGIFIINPISGQLSVTKPLDREQIASFHLRAHAVDVNGNQVENPIDIVINVIDMNDNRPEFLHQVWNGTVPEGSKPGTYVMTVTAIDADDPNAQNGMLRYRILSQAPSSPSPNMFTINNETGDIITVAAGLDREKVQQYTLIIQATDMEGNPTYGLSNTATAVITVTDVNDNPPEFTAMTFYGEVPENRVDVIVANLTVTDKDQPHTPAWNARYQMTGGDPTGQFTILTDPNSNDGLVTVVKPIDFETNRMFVLTVAAENQVPLAKGIQHPPQSTATVSITVIDVNESPYFVPNPKLVRQEEGLLAGSMLTTFTARDPDRYMQQTSLRYSKLSDPANWLKIDPVNGQITTTAVLDRESIYVQNNMYNATFLASDNGIPPMSGTGTLQIYLLDINDNAPQVNPKEATTCETLQPNAINITAVDPDIDPNAGPFAFELPDSPPSIKRNWTIVRISGDHAQLSLRIRFLEAGIYDVPIVITDSGNPHASSTSVLKVKVCQCDINGDCTDVDRIVGAGLGT
